Experimental data from the supplement of paper PMC7877785.
± gives the uncertainty stated by the source.

Assay: self-splicing fitness, log relative to wild type (ln ratio); higher = more splicing; Tetrahymena group I intron in knt gene, E. coli kanamycin selection, DiMSum; sequences stand for … in CUCUCU…GGAGGGAAAAGUUAUCAGGCAUGCACCUGGUAGCUAGUCUUUAAACCAAUAGAUUGCAUCGGUUUAAAAGGCAAGACCGUCAAAUUGCGGGAAAGGGGUCAACAGCCGUUCAGUACCAAGUCUCAGGGGAAACUUUGAGAUGGCCUUGCAAAGGGUAUGGUAAUAAGCUGACGGACAUGGUCCUAACCACGCAGCCAAGUCCUAAGUCAACAGAUCUUCUGUUGAUAUGGAUGCAGUUCACAGACUAAAUGUCGGUCGGGGAAGAUGUAUUCUUCUCAUAAGAUAUAGUCGGACCUCUCCUUAAUGGGAGCUAGCGGAUGAAGUGAUGCAACACUGGAGCCGCUGGGAACUAAUUUGUAUGCGAAAGUAUAUUGAUUAGUUUUGGAGUACUCGUGGUCG
How it was run: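 Fitness was computed with DiMSum as the error-weighted combination of replicate fold changes, kanamycin versus none, each normalised to wild type. The library randomised all eight intron nucleotides of the P1ex region, with the intron placed in the knt kanamycin-resistance gene on pET-22b(+) in E. coli BL21(DE3). Six replicate transformations were grown overnight at 37°C or 30°C on LB agar with or without 25 μg/mL kanamycin, plus 100 μg/mL carbenicillin, 50 μM IPTG and 0.2% rhamnose. Pooled colonies were amplicon-sequenced on an Illumina HiSeq 2500.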

Row | Sequence | self-splicing fitness (ln) (37 °C) | self-splicing fitness (ln) (30 °C)
1 | CUUCAGCAAUAUUACGCGCU | -1.96 ± 0.46 | –
2 | CUUCAGCAAUAUUACGCGGC | -1.01 ± 0.19 | -3.24 ± 0.36
3 | CUUCAGCAAUAUUACGCGUU | -2.7 ± 0.21 | -2.33 ± 0.12
4 | CUUCAGCAAUAUUACGCUAU | -1.99 ± 0.25 | -3.33 ± 0.37
5 | CUUCAGCAAUAUUACGCUGG | -2.15 ± 0.14 | -3.83 ± 0.21
6 | CUUCAGCAAUAUUACGGAAA | -1.16 ± 0.15 | -1.17 ± 0.18
7 | CUUCAGCAAUAUUACGGAAG | -2.4 ± 0.2 | -4.18 ± 0.28
8 | CUUCAGCAAUAUUACGGAUG | -0.191 ± 0.1 | -1.48 ± 0.069
9 | CUUCAGCAAUAUUACGGCAG | -0.351 ± 0.14 | -0.556 ± 0.12
10 | CUUCAGCAAUAUUACGGCGU | -1.8 ± 0.17 | -4.44 ± 0.24
11 | CUUCAGCAAUAUUACGGCUC | -2.51 ± 0.35 | -3.8 ± 0.37
12 | CUUCAGCAAUAUUACGGCUG | -2.65 ± 0.47 | -3.75 ± 0.34
13 | CUUCAGCAAUAUUACGGUAG | -0.92 ± 0.14 | -1.94 ± 0.12
14 | CUUCAGCAAUAUUACGGUUA | -1.08 ± 0.2 | -1.58 ± 0.19
15 | CUUCAGCAAUAUUACGUAGU | -2.5 ± 0.19 | -4 ± 0.16
16 | CUUCAGCAAUAUUACGUCGU | -2.88 ± 0.12 | -4.07 ± 0.14
17 | CUUCAGCAAUAUUACGUGAC | -3.05 ± 0.37 | -4.76 ± 0.46
18 | CUUCAGCAAUAUUACGUGCC | – | -3.44 ± 0.31
19 | CUUCAGCAAUAUUACGUGCU | -2.6 ± 0.13 | -3.07 ± 0.12
20 | CUUCAGCAAUAUUACGUGGU | -2.22 ± 0.24 | -3.25 ± 0.21
21 | CUUCAGCAAUAUUACGUGUG | -0.859 ± 0.076 | -1.1 ± 0.061
22 | CUUGAGCAAUAUUACGAGGG | -2.37 ± 0.42 | -3.25 ± 0.3

Row | Sequence | self-splicing fitness (ln) (37 °C) | self-splicing fitness (ln) (30 °C)
23 | CUUGAGCAAUAUUACGAGUC | -1.33 ± 0.17 | -4.15 ± 0.39
24 | CUUGAGCAAUAUUACGCACU | -1.9 ± 0.44 | -3.64 ± 0.39
25 | CUUGAGCAAUAUUACGCGGU | -2.78 ± 0.48 | -2.53 ± 0.33
26 | CUUGAGCAAUAUUACGCUGC | – | -2.39 ± 0.49
27 | CUUGAGCAAUAUUACGCUUA | -3.02 ± 0.37 | -2.82 ± 0.29
28 | CUUGAGCAAUAUUACGGAAG | -2.23 ± 0.28 | -2.62 ± 0.25
29 | CUUGAGCAAUAUUACGGCCA | -2.78 ± 0.36 | -1.69 ± 0.23
30 | CUUGAGCAAUAUUACGGGAG | -3.25 ± 0.26 | -3.95 ± 0.22
31 | CUUGAGCAAUAUUACGGGCU | -1.91 ± 0.25 | –
32 | CUUGAGCAAUAUUACGGUAG | -0.826 ± 0.094 | -2.88 ± 0.11
33 | CUUGAGCAAUAUUACGGUAU | -2.65 ± 0.26 | -3.17 ± 0.2
34 | CUUGAGCAAUAUUACGUACG | -0.683 ± 0.1 | -1.44 ± 0.097
35 | CUUGAGCAAUAUUACGUAGC | -2.4 ± 0.29 | -3.2 ± 0.2
36 | CUUGAGCAAUAUUACGUAUU | -3.02 ± 0.37 | –
37 | CUUGAGCAAUAUUACGUCAG | -0.671 ± 0.17 | -1.6 ± 0.15
38 | CUUGAGCAAUAUUACGUCGU | -2.75 ± 0.2 | -3.97 ± 0.18
39 | CUUGAGCAAUAUUACGUUAA | -2.6 ± 0.22 | -2.47 ± 0.16
40 | CUUGAGCAAUAUUACGUUUG | -2.26 ± 0.18 | -3.1 ± 0.16
41 | CUUUAGCAAUAUUACGAAAG | -1.7 ± 0.28 | -3.18 ± 0.23
42 | CUUUAGCAAUAUUACGAAAU | -1.99 ± 0.41 | -2.94 ± 0.36
43 | CUUUAGCAAUAUUACGAGAU | -2.57 ± 0.22 | -3.83 ± 0.23
44 | CUUUAGCAAUAUUACGCACA | -1.19 ± 0.35 | –
